US20230305005A1

Key:
[1] = biological target: RBD polypeptide (RBD portion of the SARS-CoV-2 S1 spike protein) (SARS-CoV-2) (UniProt P0DTC2); assay: BLI, biotinylated antibody on streptavidin tip, RBD polypeptide in PBS; row for 100 nM RBD
[2] = biological target: RBD polypeptide (RBD portion of the SARS-CoV-2 S1 spike protein) (SARS-CoV-2) (UniProt P0DTC2); assay: BLI, biotinylated antibody on streptavidin tip, RBD polypeptide in PBS; row for 10 nM RBD

## Ty1-Biotin (VHH)
[1]
  Kd: 9.93 nM
  koff: 0.00101 s⁻¹
  kon: 102000 M⁻¹ s⁻¹
[2]
  Kd: 9.93 nM
  koff: 0.00101 s⁻¹
  kon: 102000 M⁻¹ s⁻¹
